From publication PMC12287161, “A bioactive soluble recombinant mouse LIGHT promotes effective tumor immune cell infiltration delaying tumor growth” (Journal of Molecular Medicine (Berlin, Germany), 2025)

What was measured:
mHVEM:Fas = biological target: T1, mHVEM:Fas (mouse | human, UniProt Q80WM9 39-206; P25445 169-335); experiment: cell-based or functional assay
T1 chain: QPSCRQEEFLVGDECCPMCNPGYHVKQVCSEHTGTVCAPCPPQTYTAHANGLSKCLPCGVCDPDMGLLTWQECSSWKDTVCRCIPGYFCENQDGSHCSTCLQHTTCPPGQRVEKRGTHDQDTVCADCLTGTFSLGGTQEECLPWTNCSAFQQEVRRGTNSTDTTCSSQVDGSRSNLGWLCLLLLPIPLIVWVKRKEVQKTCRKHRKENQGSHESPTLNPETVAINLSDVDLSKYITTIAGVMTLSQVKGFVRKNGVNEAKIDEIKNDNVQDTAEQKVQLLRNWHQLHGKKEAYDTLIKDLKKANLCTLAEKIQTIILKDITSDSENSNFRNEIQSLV

[1] = biological target: the molecule itself; experiment: SEC; Superdex S200 Increase HR 10/30 in PBS, 0.55 ml/min, 250 µl of affinity-purified protein; 1 ml fractions analysed by Western blot and on reporter cells; column calibrated with protein standards

B1: Ig.Foldon-mLIGHT (Fc fusion)
chain: GYIPEAPRDGQAYVRKDGEWVLLSTFLDGGKGSWEKLIQDQRSHQANPAAHLTGANASLIGIGGPLLWETRLGLAFLRGLTYHDGALVTMEPGYYYVYSKVQLSGVGCPQGLANGLPITHGLYKRTSRYPKELELLVSRRSPCGRANSSRVWWDSSFLGGVVHLEAGEEVVVRVPGNRLVRPRDGTRSYFGAFMV
mHVEM:Fas
  EC50 of killing of mHVEM:Fas reporter cells (MTS/PMS) by conditioned supernatants of B16.F10 cells expressing Ig.Foldon-mLIGHT: 0.0019 mg/L
  EC50 of killing of mHVEM:Fas reporter cells (MTS/PMS) by purified Ig.Foldon-mLIGHT: 0.051 mg/L

B2: Flag-Foldon-mLIGHT (ligand)
chain: B1 chain
notes: Foldon, small homotrimeric domain; mouse LIGHT (TNFSF14, CD258), aa 72-239 of the 239 amino acids-long protein; the majority ran as poorly active species of around 500 kDa; also called pIB-173; source: HEK-293T, conditioned supernatant
[1]
  stoichiometry N: 3
